Earlier results on one molecule are cited in patent US12383526B2, “Optimized sigma-1 agonist method of responder selection and treatment” (ANAVEX LIFE SCIENCES CORP., priority 2018, dated 2025).

For this series the following is noted: after 72 weeks; CTAD 2018; cited from earlier work.

B1: BAN2401: comparison from other studies: data presented at CTAD 2018 for BAN2401 after 72 weeks (antibody, chains of the INN, looked up, V domains shown)
VH: EVQLVESGGGLVQPGGSLRLSCSASGFTFSSFGMHWVRQAPGKGLEWVAYISSGSSTIYYGDTVKGRFTISRDNAKNSLFLQMSSLRAEDTAVYYCAREGGYYYGRSYYTMDYWGQGTTVTVSS
VL: DVVMTQSPLSLPVTPGAPASISCRSSQSIVHSNGNTYLEWYLQKPGQSPKLLIYKVSNRFSGVPDRFSGSGSGTDFTLRISRVEAEDVGIYYCFQGSHVPPTFGPGTKLEIK
For B1, the “adjusted mean change from baseline in ADAS-Cog” value was 47% and the “adjusted mean change in ADCOMS” value was 30%.
